Measurements from the Immune Epitope Database (IEDB).

Assays:
Experiment in all cases: IEDB peptide-MHC binding, purified MHC/competitive/radioactivity; filed as Kd, often an IC50 or EC50 that approximates it; ≥ and ≤ were set here for values at or beyond the usual limits of such assays
[1] = biological target: HLA-A*02:02
[2] = biological target: HLA-A*02:03
[3] = biological target: HLA-A*02:06
[4] = biological target: HLA-A*03:01; details: source organism: Vaccinia virus WR
[5] = biological target: HLA-A*11:01; details: source organism: Vaccinia virus WR
[6] = biological target: HLA-A*31:01; details: source organism: Vaccinia virus WR
[7] = biological target: HLA-A*33:01; details: source organism: Vaccinia virus WR
[8] = biological target: HLA-A*68:01; details: source organism: Vaccinia virus WR
[9] = source organism: Vaccinia virus WR
[10] = source organism: SARS coronavirus Tor2
[11] = source organism: Dengue virus 1 Brazil/97-11/1997
[12] = source organism: Mammarenavirus juninense
[13] = source organism: Dengue virus 3 Martinique/1243/1999
[14] = source organism: Dengue virus 2 Jamaica/1409/1983
[15] = source organism: Lymphocytic choriomeningitis virus (strain Armstrong)
[16] = source organism: Dengue virus 4 Philippines/H241/1956

| Sequence | Kd [1, 9] [nM] | Kd [2, 9] [nM] | Kd [3, 9] [nM] | other results |
| --- | --- | --- | --- | --- |
| AAKTPVIVV | 1360 | 1630 | ≥ 25400 | – |
| AARLKRSAT | 12500 | 10500 | ≥ 63400 | – |
| AIMTRCLAV | – | – | – | Kd [1, 10]: 51.5 nM; Kd [2, 10]: 14.7 nM; Kd [3, 10]: 26.8 nM |
| AINKCVDIFT | ≥ 25300 | ≥ 26400 | ≥ 38600 | – |
| ALCESITLA | – | – | – | Kd [2, 11]: 17.3 nM |
| ALKNSQAELT | 2120 | 980 | ≥ 27200 | – |
| ALMTLDDLAI | 14.2 | 29.3 | 24.1 | – |
| AVYFKAKWLT | ≥ 27200 | 8930 | 8710 | – |
| CLLTDTIESA | 53 | 102 | 92.1 | – |
| CNYTKFWYV | – | – | – | Kd [1, 12]: 1940 nM; Kd [2, 12]: 794 nM; Kd [3, 12]: 34.5 nM |
| CTEETKRNI | ≥ 77800 | ≥ 78100 | ≥ 77100 | – |
| CVKYLLDNDI | ≥ 31800 | 5670 | 7580 | – |
| DIMLPESDL | 18500 | ≥ 35800 | ≥ 31600 | – |
| DIRDKYMEL | ≥ 24300 | 3860 | 14500 | – |
| DMDFDLNIFM | 1150 | ≥ 5000 | 5310 | – |
| ETAIRAGYSI | ≥ 25800 | ≥ 29300 | 17800 | – |
| ETIEILRNYL | 474 | 1410 | 0.276 | – |
| EVIGLTTHCT | 10500 | 14900 | 12200 | – |
| FLAFVVFLLV | – | – | – | Kd [1, 10]: 2.36 nM; Kd [2, 10]: 211 nM; Kd [3, 10]: 2980 nM |

| Sequence | Kd [1, 9] [nM] | Kd [2, 9] [nM] | Kd [3, 9] [nM] | other results |
| --- | --- | --- | --- | --- |
| FLARKGIDT | 1020 | 318 | 3040 | – |
| FTSYKRFVT | 2330 | 3380 | 12400 | – |
| GANGSTAEQL | 7280 | ≥ 45300 | ≥ 55400 | – |
| GLAFSIMKSV | – | – | – | Kd [2, 13]: 11.6 nM |
| GLDERFVEEL | 93 | 1210 | 2520 | – |
| GLKALYETEL | – | – | – | Kd ([3]; source organism: Homo sapiens): ≥ 71200 nM |
| GLSDRVVFV | – | – | – | Kd [1, 10]: 1.04 nM; Kd [2, 10]: 1.07 nM; Kd [3, 10]: 68.6 nM |
| GLSSGFYFEI | 48.3 | 782 | 1730 | – |
| HVLGRLITV | – | – | – | Kd [3, 14]: 8.84 nM |
| IIYSKAGNIL | 8.48 | 110 | 342 | – |
| ILKDPRIASI | 3160 | 1030 | 4000 | – |
| IMKDGREIV | – | – | – | Kd [2, 11]: 110 nM |
| ITRLEVIGL | 5510 | 213 | 776 | – |
| IVAALVFLI | – | – | – | Kd [1, 10]: 0.138 nM; Kd [2, 10]: 15.5 nM; Kd [3, 10]: 1.81 nM |
| IVNNFITKEI | 1470 | 192 | 14200 | – |
| KTANNYETI | 37.2 | 38.5 | 329 | – |
| KTRLFRSPQV | 9270 | 984 | 433 | – |
| LAFVVFLLV | – | – | – | Kd [1, 10]: 458 nM; Kd [2, 10]: 1270 nM; Kd [3, 10]: 253 nM |
| LAIKNYYRKT | ≥ 36800 | 7180 | ≥ 69800 | – |

| Sequence | Kd [1, 9] [nM] | Kd [2, 9] [nM] | Kd [3, 9] [nM] | other results |
| --- | --- | --- | --- | --- |
| LATLNTLITL | 139 | 338 | 323 | – |
| LLENKSLTIL | 185 | 541 | 7430 | – |
| LSAEELMSL | – | – | – | Kd [1, 15]: 64.5 nM; Kd [2, 15]: 705 nM; Kd [3, 15]: 65.9 nM |
| LVVVTTLCAI | – | – | – | Kd [3, 16]: 91.2 nM |
| MIGNYFSGVL | 712 | 761 | 1310 | – |
| MMILPAALA | – | – | – | Kd ([2]; source organism: Dengue virus 3 Sri Lanka/1266/2000): 46.4 nM |
| NITPDDGLGL | 1910 | 1290 | 3450 | – |
| NQAVVLMGL | – | – | – | Kd [3, 13]: 88.4 nM |
| NQILEENMEV | – | – | – | Kd [3, 16]: 29.1 nM |
| NTDHPLSINV | 388 | 583 | 1.64 | – |
| NTVGMSIVCI | 3020 | 1540 | 1210 | – |
| NVFISPASI | 202 | 0.727 | 660 | – |
| NVIEDITFL | 146 | 300 | 25.8 | – |
| RIASILSLET | 583 | 449 | 751 | – |
| RIITILQDI | 583 | 5.57 | 2.01 | – |
| RISSSLDQT | 6790 | 12800 | ≥ 27800 | – |
| RLFTRCAVI | 93.8 | 249 | 2820 | – |
| RTLILAPTRV | – | – | – | Kd [3, 14]: 466 nM |
| RVMANNVKKK | – | – | – | Kd [4]: 103 nM; Kd [5]: 96 nM; Kd [6]: 760 nM; Kd [7]: ≥ 28200 nM; Kd [8]: 539 nM |
